In patent US20100119588A1:

Target: hemagglutinin H1 on influenza virus A/Puerto Rico/8/34 strain (H1N1) (influenza virus A/Puerto Rico/8/34 (H1N1)) (UniProt P03452)
Test: cell-based or functional assay

Substance: C18-s2(1-4)P4A (C18-ARLA peptide amide)
- IC50(µM), plaque assay, infection of MDCK cells: > 100 µM
